Measured values as given in US7271245B2, “Methods and compositions for inhibition of metastasis” (The Scripps Research Institute, priority 2004, dated 2007).

System: BMS human breast cancer cells
Test: Haptotactic tumor cell migration toward fibrinogen (transwell)
Assay type: cell-based
Conditions: 2 μM scFv, 16 hrs at 37° C.
Protocol: FIGS. 3A, 3B, 3C, 3D, 3E. scFv Bc-12 and Bc-15 inhibit αvβ3 mediated adhesive breast cancer cell functions. (A) Adhesion of BMS human breast cancer cells to fibrinogen (Fg), vitronectin (VN) or type I collagen (Col I) in the absence or presence of 3 μM Bc-12, Bc-15 or their RGE mutants Mut-12, Mut-15, compared to 200 μM GRGDSPK peptide (SEQ ID NO: 11). Protein coating concentrations: 10 μg/ml (VN, Col I) or 20 μg/ml (Fg). Adhesion time: 30 min at 37° C. (B) Effect of scFvs on haptotactic BMS cell migration toward a fibrinogen substrate (16 hrs at 37° C. in transwell chambers with or without 2 μM Bc-12, Bc-15 or their RGE mutants Mut-12 or Mut-15, compared to 200 μM GRGDSPK peptide) (SEQ ID NO: 11). (C) Effect of scFvs on breast cancer cell arrest during blood flow. Metastatic BMS cells, labeled with hydroethidine, were suspended in human blood (anticoagulated with 50 nM PPACK) and perfused over a collagen I matrix at a venous wall shear rate of 50 s^−1. Under these conditions, breast cancer cells arrest by αvβ3 mediated binding to adherent, thrombus forming platelets. Tumor cell adhesion was quantified by image acquisition at 30 predefined positions during blood flow. Left: representative images of platelet signal (thrombi, green fluorescence) and tumor cell signal (red fluorescence) at identical x,y positions. Right: Number of arrested tumor cells in the presence of 3 μM non-function blocking anti αv scFv Bc-20 or function blocking anti αvβ3 scFvs Bc-12 or Bc-15. (D) scFv Bc-15 is internalized by human breast cancer cells and reduces cell proliferation. Left: confocal images of BMS cells incubated for 4 hrs with FITC-Bc-15 at 4° C. (binding) versus 37° C. (allowing internalization). Right: Phase contrast images of BMS cell cultures 4 days after seeding in the presence of 2 μM RGE containing scFv Mut-15, or RGD containing Bc-15. […]
Cell adhesion and migration. Tumor cell adhesion under stationary conditions was analyzed as detailed earlier (19). […] Haptotactic tumor cell migration toward fibrinogen was analyzed in transwell chambers as detailed earlier. […]

B1: Bc-12: patient derived human scFv antibody against activated αvβ3 with RGD motif in CDR-H3; cDNA ATCC PTA-6303 (protein)
scFv: MAQVQLVQSGAEVKKPGASVKVSCKASGYTFSNYGITWVRQAPGQGLEWMGWINNGNTHYAQKFQGRVTMTTDTSTSTAYMELRSLRSDDTAVYYCARDPRGDDEPYWGQGTLVTVSSGGGGSGGGGSGGGGSEIVLTQSPLSLPVTLGQPASISCRSSQNLVYSDGNTYLSWFQQRPGQSPRRLIYKVSNRDSGVPDRFSGSGSGTDFTLKISRVEAEDIGVYYCMQGTHWPPRTFGQGTKVEIKRGLGGLVDYKDDDDK
**Q.** For B1, which fibrinogen directed migration is on record?
**A.** inhibited BMS human breast cancer cell migration almost completely

B2: Mut-12: RGE containing mutant version of scFv Bc-12 (protein)
chain: MAQVQLVQSGAEVKKPGASVKVSCKASGYTFSNYGITWVRQAPGQGLEWMGWINNGNTHYAQKFQGRVTMTTDTSTSTAYMELRSLRSDDTAVYYCARDPRGEDEPYWGQGTLVTVSSGGGGSGGGGSGGGGSEIVLTQSPLSLPVTLGQPASISCRSSQNLVYSDGNTYLSWFQQRPGQSPRRLIYKVSNRDSGVPDRFSGSGSGTDFTLKISRVEAEDIGVYYCMQGTHWPPRTFGQGTKVEIKRGLGGLVDYKDDDDK
**Q.** How did the fibrinogen directed migration turn out when B2 was run?
**A.** only a minor effect
